Experimental data taken from article PMC8102066, “Differences in interactions between transmembrane domains tune the activation of metabotropic glutamate receptors” (eLife, 2021).

Molecular target: the molecule itself
Assay: single-molecule pulldown (SiMPull) with photobleaching step counting; HEK 293T cells surface-labelled with BG-LD555, lysed in 1.2% IGEPAL, diluted in 0.1% IGEPAL buffer; HA-SNAP constructs captured by biotinylated anti-HA antibody on NeutrAvidin/PEG slides; TIRF; percent dimerization = two-step bleaching min-max normalised (5% background, 55% for full-length mGluR2); in some experiments saturating ligands (TASP, MNI …)

B1: HA-SNAP-mGluR3-C127A (receptor, rat, UniProt P31422 23-879, looked up)
chain: LGDHNFMRREIKIEGDLVLGGLFPINEKGTGTEECGRINEDRGIQRLEAMLFAIDEINKDNYLLPGVKLGVHILDTCSRDTYALEQSLEFVRASLTKVDEAEYMAPDGSYAIQENIPLLIAGVIGGSYSSVSIQVANLLRLFQIPQISYASTSAKLSDKSRYDYFARTVPPDFYQAKAMAEILRFFNWTYVSTVASEGDYGETGIEAFEQEARLRNICIATAEKVGRSNIRKSYDSVIRELLQKPNARVVVLFMRSDDSRELIAAANRVNASFTWVASDGWGAQESIVKGSEHVAYGAITLELASHPVRQFDRYFQSLNPYNNHRNPWFRDFWEQKFQCSLQNKRNHRQVCDKHLAIDSSNYEQESKIMFVVNAVYAMAHALHKMQRTLCPNTTKLCDAMKILDGKKLYKEYLLKINFTAPFNPNKGADSIVKFDTFGDGMGRYNVFNLQQTGGKYSYLKVGHWAETLSLDVDSIHWSRNSVPTSQCSDPCAPNEMKNMQPGDVCCWICIPCEPYEYLVDEFTCMDCGPGQWPTADLSGCYNLPEDYIKWEDAWAIGPVTIACLGFLCTCIVITVFIKHNNTPLVKASGRELCYILLFGVSLSYCMTFFFIAKPSPVICALRRLGLGTSFAICYSALLTKTNCIARIFDGVKNGAQRPKFISPSSQVFICLGLILVQIVMVSVWLILETPGTRRYTLPEKRETVILKCNVKDSSMLISLTYDVVLVILCTVYAFKTRKCPENFNEAKFIGFTMYTTCIIWLAFLPIFYVTSSDYRVQTTTMCISVSLSGFVVLGCLFAPKVHIVLFQPQKNVVTHRLHLNRFSVSGTATTYSQSSASTYVPTVCNGREVLDSTTSSL
modifications: SNAP tag labelled with BG-LD555 (BG-LD655 in two-colour SiMPull)
notes: mGluR3, full-length receptor with the intersubunit disulfide cysteine of the LBD mutated; source: HEK 293T, transfected, in lysate; not shown: HA, N-terminal, kept; SNAP, N-terminal, kept
**Q.** Which “fold reduction in dimerization against SNAP-mGluR3” value does the source give for B1 here?
**A.** The value was 2 fold.
